One block for each sequence: values may come before it.
Key:
HLA-A*01:01 = assay: IEDB peptide-MHC binding, purified MHC/direct/fluorescence; filed as Kd, often an IC50 or EC50 that approximates it; ≥ and ≤ were set here for values at or beyond the usual limits of such assays; settings: source organism: Giardia lamblia ATCC 50803
HLA-A*02:01 = assay: as above; settings: source organism: Giardia lamblia ATCC 50803
HLA-A*02:06 = assay: as above; settings: source organism: Giardia lamblia ATCC 50803
HLA-A*02:11 = assay: as above; settings: source organism: Giardia lamblia ATCC 50803
HLA-A*02:12 = assay: as above; settings: source organism: Giardia lamblia ATCC 50803
HLA-A*02:16 = assay: as above; settings: source organism: Giardia lamblia ATCC 50803
HLA-A*03:01 [1] = assay: as above; settings: source organism: Giardia lamblia ATCC 50803
HLA-A*11:01 [2] = assay: as above
HLA-A*24:02 = assay: as above; settings: source organism: Giardia lamblia ATCC 50803
HLA-A*31:01 [3] = assay: as above
HLA-B*07:02 = assay: as above
HLA-B*08:02 [4] = assay: as above
HLA-B*15:01 = assay: as above; settings: source organism: Giardia lamblia ATCC 50803
HLA-B*18:01 = assay: as above; settings: source organism: Giardia lamblia ATCC 50803
HLA-B*27:05 = assay: as above
HLA-B*40:01 = assay: as above
HLA-B*44:02 = assay: as above; settings: source organism: Giardia lamblia ATCC 50803
HLA-B*46:01 = assay: as above
HLA-B*58:01 = assay: as above
HLA-A*02:03 = assay: IEDB peptide-MHC binding, purified MHC/competitive/fluorescence; filed as Kd, often an IC50 or EC50 that approximates it; ≥ and ≤ were set here for values at or beyond the usual limits of such assays; settings: source organism: Giardia lamblia ATCC 50803
HLA-A*03:01 [5] = assay: as above; settings: source organism: Human immunodeficiency virus 1
HLA-A*11:01 [6] = assay: as above; settings: source organism: Human immunodeficiency virus 1
HLA-A*26:01 = assay: as above; settings: source organism: Human immunodeficiency virus 1
HLA-A*26:03 = assay: as above; settings: source organism: Human immunodeficiency virus 1
HLA-A*30:01 = assay: as above; settings: source organism: Human immunodeficiency virus 1
HLA-A*31:01 [7] = assay: as above; settings: source organism: Human immunodeficiency virus 1
HLA-B*08:02 [8] = assay: as above; settings: source organism: Human immunodeficiency virus 1
HLA-C*01:02 = assay: IEDB peptide-MHC binding, purified MHC/direct/fluorescence; filed as Kd, often an IC50 or EC50 that approximates it; ≥ and ≤ were set here for values at or beyond the usual limits of such assays; settings: source organism: Homo sapiens
HLA-A*68:02 = assay: as above; settings: source organism: Mycobacterium tuberculosis
HLA-B*08:01 = assay: as above; settings: source organism: Mycobacterium tuberculosis str. Haarlem
HLA-B*08:03 = assay: as above; settings: source organism: Mycobacterium tuberculosis str. Haarlem
HLA-B*48:01 = assay: as above; settings: source organism: Mycobacterium tuberculosis
HLA-B*57:01 = assay: as above; settings: source organism: Mycobacterium tuberculosis
[9] = source organism: Giardia lamblia ATCC 50803
[10] = source organism: Mycobacterium tuberculosis

Sequence: HCIDKTPGL
- Kd (HLA-A*01:01): ≥ 20 µM
- Kd (HLA-A*02:01): 0.319 µM
- Kd (HLA-A*02:06): 0.106 µM
- Kd (HLA-A*02:11): 0.914 µM
- Kd (HLA-A*02:12): 0.26 µM
- Kd (HLA-A*02:16): 0.39 µM
- Kd (HLA-A*03:01 [1]): ≥ 20 µM
- Kd (HLA-A*11:01 [2]; [9]): ≥ 20 µM
- Kd (HLA-A*24:02): ≥ 20 µM
- Kd (HLA-A*31:01 [3]; [9]): ≥ 20 µM
- Kd (HLA-B*07:02; [9]): ≥ 20 µM
- Kd (HLA-B*08:02 [4]; [9]): ≥ 20 µM
- Kd (HLA-B*15:01): ≥ 20 µM
- Kd (HLA-B*18:01): ≥ 20 µM
- Kd (HLA-B*27:05; [9]): ≥ 20 µM
- Kd (HLA-B*40:01; [9]): ≥ 20 µM
- Kd (HLA-B*44:02): ≥ 20 µM
- Kd (HLA-B*46:01; [9]): ≥ 20 µM
- Kd (HLA-B*58:01; [9]): ≥ 20 µM
- Kd (HLA-A*02:03): 2.48 µM

Sequence: IATLYCVHQR
- Kd (HLA-A*03:01 [5]): ≥ 20 µM
- Kd (HLA-A*11:01 [6]): 5.82 µM
- Kd (HLA-A*26:01): ≥ 20 µM
- Kd (HLA-A*26:03): ≥ 20 µM
- Kd (HLA-A*30:01): 5.99 µM
- Kd (HLA-A*31:01 [7]): 0.761 µM
- Kd (HLA-B*08:02 [8]): ≥ 20 µM

- Kd (HLA-C*01:02): ≤ 0.0001 µM
Sequence: PLPDRSLPAL

Sequence: TLLESFLFY
- Kd (HLA-A*11:01 [2]; [10]): 0.01 µM
- Kd (HLA-A*31:01 [3]; [10]): ≥ 20 µM
- Kd (HLA-A*68:02): ≥ 20 µM
- Kd (HLA-B*07:02; [10]): ≥ 20 µM
- Kd (HLA-B*08:01): ≥ 20 µM
- Kd (HLA-B*08:02 [4]; source organism: Mycobacterium tuberculosis str. Haarlem): ≥ 20 µM
- Kd (HLA-B*08:03): ≥ 20 µM
- Kd (HLA-B*27:05; [10]): ≥ 20 µM
- Kd (HLA-B*40:01; [10]): ≥ 20 µM
- Kd (HLA-B*46:01; [10]): ≥ 20 µM
- Kd (HLA-B*48:01): ≥ 20 µM
- Kd (HLA-B*57:01): ≥ 20 µM
- Kd (HLA-B*58:01; [10]): ≥ 20 µM

Source: the Immune Epitope Database (IEDB)
